Test results from patent publication US20260356970 (published 2026).

B1: EMR2-1-scFv (antibody, V domains shown)
VH: QVQLVQSGAEVKKPGASVKVSCKASGYTFTSYGISWVRQAPGQGLEWMGWISAYNGNTNYAQKLQGRVTMTTDTSTSTAYMELRSLRSDDTAVYYCARGYAFDIWGQGTMVTVSS
VL: SYELTQPLSVSVALGQTARITCGGNNIGSKNVHWYQQKPGQAPVLVIYRDSNRPSGIPERFSGSNSGNTATLTINRAQAGDEADYYCQVWDSSTVVFGGGTELTVL
B2: EMR2-2-scFv (antibody, V domains shown)
VH: QVQPVESGGGLVQPGGSLRLSCAASGFTFSSYEMNWVRQAPGKGLEWVSAISGGGGSTYYADSVKGRFTISRDNSKNTLYLQMNSLRAEDTAVYYCAKSGRGWAAAGRWGQGTLVTVSS
VL: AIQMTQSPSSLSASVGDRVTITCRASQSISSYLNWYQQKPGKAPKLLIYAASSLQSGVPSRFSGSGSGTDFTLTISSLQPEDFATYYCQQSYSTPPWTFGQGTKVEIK
B3: EMR2-3-VH (designed binder)
chain: QVQLVQSGGGLVQPGGSLRLSCAASDFSFDSYEMSWVRQAPGKGLEWVSSISASGGRTFYADSVKGRFTISRDNSKNTLYLQMNTLRAEDTALYYCARHPGIMGQGTLVTVSS

Target: T1, EMR2 (human, UniProt Q9UHX3)
T1 chain: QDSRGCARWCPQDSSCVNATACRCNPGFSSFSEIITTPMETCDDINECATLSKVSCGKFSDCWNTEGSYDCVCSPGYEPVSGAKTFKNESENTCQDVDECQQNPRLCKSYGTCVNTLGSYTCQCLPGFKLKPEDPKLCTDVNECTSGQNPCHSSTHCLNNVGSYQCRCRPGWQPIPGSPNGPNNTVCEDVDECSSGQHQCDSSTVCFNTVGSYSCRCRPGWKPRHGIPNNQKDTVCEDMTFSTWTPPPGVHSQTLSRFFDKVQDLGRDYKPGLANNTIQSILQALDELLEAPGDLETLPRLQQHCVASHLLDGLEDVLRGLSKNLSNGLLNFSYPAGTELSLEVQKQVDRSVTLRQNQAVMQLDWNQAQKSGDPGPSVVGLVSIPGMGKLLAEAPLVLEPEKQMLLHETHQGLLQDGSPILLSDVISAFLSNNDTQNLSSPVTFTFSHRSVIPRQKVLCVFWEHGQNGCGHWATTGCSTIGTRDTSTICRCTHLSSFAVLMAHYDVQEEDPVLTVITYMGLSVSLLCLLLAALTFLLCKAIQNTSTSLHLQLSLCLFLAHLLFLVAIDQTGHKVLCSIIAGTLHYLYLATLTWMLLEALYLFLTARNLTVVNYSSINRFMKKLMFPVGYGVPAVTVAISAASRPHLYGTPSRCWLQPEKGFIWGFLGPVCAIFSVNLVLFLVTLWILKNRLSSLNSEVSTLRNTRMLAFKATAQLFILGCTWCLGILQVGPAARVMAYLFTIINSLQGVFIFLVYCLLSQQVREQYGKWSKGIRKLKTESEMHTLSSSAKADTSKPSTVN
Test: ELISA

| Binder | EC50 |
| --- | --- |
| B1 | < 1 nM |
| B2 | < 1 nM |
| B3 | < 1 nM |
